Test results reported in the DeepSol protein solubility set.

assay: soluble on expression in E. coli; label from the status in PepcDB or PDB records

| Sequence | soluble on expression in E. coli |
| --- | --- |
| QSFRAIQLSDLHIGGLIEEHYMEALGERINALKPDMIFLTGDITDASCEQIRTPLEKLKALQAPLGIYFVSGNHEFFHGIQKTMDFLREMGIVVLENDSRTIEGLVNIAGVHDLFGRRIGFLEPDLEQALYGIDPSLPTILLAHQPKFAKEALGYPVDLILSGHTHGGQIAPFGLLVR | not soluble |
| MSNTHEVRPGQSIELLKALHILTRDGKMNQDSRRKLKQVYHLYQFIEPLLQNARNARGAVTLVDHGAGKSYLGFILYDLFFKDRRDASHIYGIETRAELVQSATELAARLGFGGMSFLNLSVADSIASEQLPPRVDIVTALHACNTATDDAIRFALAKQAQSIVLVPCCQAEVAAVLRKNKARALADPMAELWRHPLHTREFGSQLTNVLRCLQLEAHGYQLSVTELVGWEHSMKNELIIARHQPGRPRREPARRLREMLERIGLQELSERFQVPAQP | not soluble |
| MQAKLFMIPWLIELVISQRAPSPPNPTPSAQVLTNDLLVDAHRRHFLDMLRRQQQINDALLLNNALLHPHPLPPLHIPANPAIQELNLPPAPPLFNPFIPAQVANQGPTSKLGTYGKDDEPEKKSEELKETPEEKEGTVGAPVRTDLVKKTLAGVKTVSIQKKGDVTGETLTTMEVVAPTTSTISPEDLEVVQLFKKLNLSKEETKSIVERVEQVVREKLMSKMDTSSTTTEVTTVVTTPSTTTTTTSTTQAPTTTTKEFIEEEIEEEDYSVATTAPPPQMHIRSEENLILQRNNLKHHPIKLQEKKLPESLESEEISQGSIKTSLTHLPIFVANEEEDVASLNPKSALHKRILIASQDREKESDRDLLVDFATGAPLDLSEPDVTKSKYEASPVATSPATLAPAQVTTRPVAPPRLNYHERTDFERLASDYRRRLENTGDINKILQKISENAYISLVERGGRRRLFGS | not soluble |
| MSRETNFNGTKRKRSDVAEKVAQRWKSVRYSAEMENMAPVNSNNDSDDCVIVSESKIIDLTNQEQDLSERIETNDTAKGAVFKLMKSDFYEREDFMGEVEDMITLKDIFGTETLKRSILFSFQYELDFLLRQFHQNVENITIVGQKGTIMPIEARAMDATLAVILKKVKLIEITMPPFASHHTKLIINFYDNGECKIFLPSNNFTSMETNLPQQVCWCSPLLKIGKEGLPVPFKRSLIEYLNSYHLKDIDELITKSVEEVNFAPLSELEFVYSTPSKFQSSGLLSFYNKLEKLSAGTSASDTAKHYLCQTSSIGTSLSRARDENLWTHLMIPLFTGIMSPPAKDTAGRKKAEILPTNSLINEYSQRKIKPYIIFPTEQEFVTSPLKWSSSGWFHFQYLQKKSYYEMLRNKFKVFYKQDPAMVTRRRGTTPAHSKFYMHCATNSAGPCDASQVFKELEWCLYTSANLSQTAWGTVSRKPRNYEAGVLYHSRRLANTRKVTCRTFTRDRRGCAGNPTHVAVPFTLPVIPYDLAEDECFCLARHEND | soluble |
| MFTQQRLRPNTQELLKETNHLCEAFAISESILARYQRNNRQLSESEKKAFASLLLRVPHDFLTETVASLGTSKTSSIGPTTDLGSLIDNVFGFGKPLKDVFQLLNQELGNCLNSPRCRVYYLDPTDNLLKDPVYATASTLDETTPLGKAVLTGIQREIAGTLYLPLSFEGKVIACVESAWGSPEKGDKRRIKETLQFVACAMHNAIESERLRWNKEKAEAMLEMATQLARDNLDEAVLANSIMNTAKVLTESDRCSIFLVKDDTLEAHFEDGNIVAIPIATGIAGYVAQTGQTVKISDAYSDDRFNREVDKATGYRTKTILCMPVTYEGSIVAVAQLINKLDMVTESGLRLPRTFGKRDEELFQTFSMFAGASLRNCRINEKLINEKRKSDAILDVVTLLSNTDIRDVDGIVRHVLHGAKRLLYADRSALFLVDKERNELYSRIADSVAGKEIRFPCGQGIAGIVASTGIGENILDAYQDPRFNREVDKQLGYRTQTLLCEPIVLNGEILAVVQLVNKLNEAGEVTVFTESDRETFRVFSLFAGISINNSHLLEFAVKAGREMMELNENRALAGGRTGSLRNIKRPLAITEAERQAVRDINLAHLDITSIDFDLFYLRENMELPLDAAAAVAYRLIVGTGLPQKFRCRDDTLLNFILQCRKKYRNVPYHNFYHVVDVCQTVYTFLYKGAVCEKLTELDCFVLLVTALVHDLDHMGLNNSFYLKTDSPLGILSSASGNASVLEVHHCNLAVEILSDPDSDVFEGLDAADRTLAYRSMIDCVLATDMAKHGKSLESFLSVLGNPETSEQRIAELTMQIVLKAGDVSNVTKPFDISRLWAMAVTEEFYRQGDMEKEKGVEVLPMFDRSKNTELAKGQIGFIDFVAGPFFKKIVSASLTGMQWTVERVESNRLEWQRSLDAK | not soluble |
